PMC12227774

B1: FURIN-25nt (structured_RNA)
RNA: GGAGGCCACCUCUCCAAGGGCUUCU
modifications: none
B2: FURIN-25nt-m5C (structured_RNA)
RNA: GGAGGCCACCUCUCCAAGGGCUUCU
modifications: m5C at position 12 (NSUN6-methylated)

How the values were obtained:
YBX3 CSD = YBX3 CSD (human, UniProt P16989 82-174); experiment: BLI
YBX1 CSD = YBX1 CSD (human, UniProt P67809 48-159); experiment: BLI
YBX1 CSD, sequence (P67809 48-159): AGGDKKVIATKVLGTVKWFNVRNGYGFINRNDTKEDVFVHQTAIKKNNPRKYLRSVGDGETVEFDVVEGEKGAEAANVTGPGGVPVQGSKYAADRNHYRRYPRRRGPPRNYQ

YBX3 CSD, sequence (P16989 82-174): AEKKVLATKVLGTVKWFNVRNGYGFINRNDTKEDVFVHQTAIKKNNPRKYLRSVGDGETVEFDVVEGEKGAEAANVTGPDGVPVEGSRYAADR

| Binder | Kd (YBX3 CSD) | Kd (YBX1 CSD) |
| --- | --- | --- |
| B1 | 87.5 nM | 346 nM |
| B2 | 45 nM | 214 nM |
